Values quoted from earlier work, collected in article PMC8758526.

Key:
TREM-1 (Mus musculus) = TREM-1 (Mus musculus) (UniProt Q9JKE2)
TLR4 (Mus musculus) = TLR4 (Mus musculus) (UniProt Q9QUK6)
UniProt Q9QUK6, sequence (Q9QUK6 26-835): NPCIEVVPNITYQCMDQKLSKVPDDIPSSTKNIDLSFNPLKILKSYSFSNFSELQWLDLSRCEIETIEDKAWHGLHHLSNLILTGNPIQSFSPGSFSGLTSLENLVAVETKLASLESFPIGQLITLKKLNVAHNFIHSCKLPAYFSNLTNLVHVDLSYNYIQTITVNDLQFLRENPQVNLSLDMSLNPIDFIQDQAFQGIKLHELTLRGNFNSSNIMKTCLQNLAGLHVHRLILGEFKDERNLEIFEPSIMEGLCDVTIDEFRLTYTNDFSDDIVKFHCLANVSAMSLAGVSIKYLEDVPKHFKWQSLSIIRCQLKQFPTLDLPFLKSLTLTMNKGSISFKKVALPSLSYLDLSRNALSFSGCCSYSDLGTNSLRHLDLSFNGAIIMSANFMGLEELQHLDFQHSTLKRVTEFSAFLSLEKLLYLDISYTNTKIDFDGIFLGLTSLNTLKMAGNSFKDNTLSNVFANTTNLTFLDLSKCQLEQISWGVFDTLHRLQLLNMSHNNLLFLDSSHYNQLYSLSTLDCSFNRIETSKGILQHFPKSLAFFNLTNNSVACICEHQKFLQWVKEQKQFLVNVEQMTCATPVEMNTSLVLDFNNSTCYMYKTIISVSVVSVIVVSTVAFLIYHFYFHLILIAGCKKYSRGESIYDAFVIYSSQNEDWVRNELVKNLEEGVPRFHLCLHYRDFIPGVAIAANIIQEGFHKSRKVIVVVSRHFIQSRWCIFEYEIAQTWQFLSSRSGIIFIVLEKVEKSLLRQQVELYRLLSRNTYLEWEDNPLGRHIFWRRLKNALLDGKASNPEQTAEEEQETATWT

UniProt Q9JKE2, sequence (Q9JKE2 21-230): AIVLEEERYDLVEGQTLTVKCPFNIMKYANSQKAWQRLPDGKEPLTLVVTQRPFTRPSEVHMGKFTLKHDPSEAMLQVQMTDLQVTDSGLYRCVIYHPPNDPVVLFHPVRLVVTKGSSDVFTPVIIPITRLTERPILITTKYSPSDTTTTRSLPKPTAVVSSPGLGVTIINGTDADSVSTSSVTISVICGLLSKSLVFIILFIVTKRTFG

Kd (TREM-1 (Mus musculus)): 117 nM
Kd (TLR4 (Mus musculus)): 617 nM
Substance: eCIRP (from UniProt P60824)
